Experimental data from publication PMC9270373.
Square brackets hold non-standard residues; d marks the D form. Ends that are not written are not given here. pT = C[C@@H](OP(=O)(O)O)[C@H](N)C(=O)O

Key:
[1] = molecular target: potato 14-3-3 protein St14f (Solanum tuberosum L. (potato)); experiment: crystal structure; St14f free form, 2.5 Å; hanging drop, 12% (w/v) PEG 8000, 0.2 M ammonium tartrate pH 7, 277 K; three chains (A, B, C) in the asymmetric unit, dimers AA and BC
[2] = molecular target: St14f S214T (Solanum tuberosum L. (potato)); experiment: thermal shift assay; 10 µM St14f with no and with 100 µM StFDL1 peptide; SYPRO Orange; 10 mM HEPES pH 7.5, 0.15 M NaCl; heated from 25 to 99 °C; ΔTm = melting temperature difference with and without the peptide
[3] = molecular target: St14f S218G (Solanum tuberosum L. (potato)); experiment: as above
[4] = molecular target: St14f S214M (Solanum tuberosum L. (potato)); experiment: as above
[5] = molecular target: St14f S218M (Solanum tuberosum L. (potato)); experiment: as above
[6] = molecular target: St14f L229A (Solanum tuberosum L. (potato)); experiment: as above
[7] = molecular target: St14f D217A (Solanum tuberosum L. (potato)); experiment: as above
[8] = molecular target: St14f S214L (Solanum tuberosum L. (potato)); experiment: as above
[9] = molecular target: St14f Y215A (Solanum tuberosum L. (potato)); experiment: as above
[10] = molecular target: St14f I221A M222A (Solanum tuberosum L. (potato)); experiment: as above
[11] = molecular target: St14f S218L (Solanum tuberosum L. (potato)); experiment: as above
[12] = molecular target: potato 14-3-3 protein St14f (Solanum tuberosum L. (potato)); experiment: as above

| Molecule | stoichiometry N [1] | ΔTm [2] [°C] | ΔTm [3] [°C] | ΔTm [4] [°C] | ΔTm [5] [°C] | ΔTm [6] [°C] | ΔTm [7] [°C] | ΔTm [8] [°C] | ΔTm [9] [°C] | ΔTm [10] [°C] | ΔTm [11] [°C] | ΔTm [12] [°C] |
| --- | --- | --- | --- | --- | --- | --- | --- | --- | --- | --- | --- | --- |
| potato 14-3-3 protein St14f (natural protein) | 2 | – | – | – | – | – | – | – | – | – | – | – |
| LNRTS[pT]APF [StFDL1 peptide (LNRTSpTAPF)] | – | 4.01 | 6.37 | 3.6 | 7.48 | 6.22 | 6.67 | 4.26 | 4.42 | 4.63 | 7.61 | 4.03 |
